B1: 1-phosphatidylinositol 4,5-bisphosphate phosphodiesterase gamma-1 (Bos taurus (Bovine)), P08487 (parent)
chain: MAGAASPCANGCGPSAPSDAEVVHLCRSLEVGTVMTLFYSKKSQRPERKTFQVKLETRQITWSRGADKIEGAIDIREIKEIRPGKTSRDFDRYQEDPAFRPDQSHCFVILYGMEFRLKTLSLQATSEDEVNMWIRGLTWLMEDTLQAATPLQIERWLRKQFYSVDRNREDRISAKDLKNMLSQVNYRVPNMRFLRERLTDLEQRTSDITYGQFAQLYRSLMYSAQKTMDLPFLEASALRAGERPELCRVSLPEFQQFLLEYQGELWAVDRLQVQEFMLSFLRDPLREIEEPYFFLDEFVTFLFSKENSIWNSQLDEVCPDTMNNPLSHYWISSSHNTYLTGDQFSSESSLEAYARCLRMGCRCIELDCWDGPDGMPVIYHGHTLTTKIKFSDVLHTIKEHAFVASEYPVILSIEDHCSIAQQRNMAQYFKKVLGDTLLTKPVDIAADGLPSPNQLKRKILIKHKKLAEGSAYEEVPTSVMYSENDISNSIKNGILYLEDPVNHEWYPHYFVLTSSKIYYSEETSSDQGNEDEEEPKEASGSTELHSNEKWFHGKLGAGRDGRHIAERLLTEYCIETGAPDGSFLVRESETFVGDYTLSFWRNGKVQHCRIHSRQDAGTPKFFLTDNLVFDSLYDLITHYQQVPLRCNEFEMRLSEPVPQTNAHESKEWYHASLTRAQAEHMLMRVPRDGAFLVRKRNEPNSYAISFRAEGKIKHCRVQQEGQTVMLGNSEFDSLVDLISYYEKHPLYRKMKLRYPINEEALEKIGTAEPDYGALYEGRNPGFYVEANPMPTFKCAVKALFDYKAQREDELTFTKSAIIQNVEKQEGGWWRGDYGGKKQLWFPSNYVEEMVSPAALEPEREHLDENSPLGDLLRGVLDVPACQIAVRPEGKNNRLFVFSISMASVAHWSLDVAADSQEELQDWVKKIREVAQTADARLTEGKMMERRKKIALELSELVVYCRPVPFDEEKIGTERACYRDMSSFPETKAEKYVNKAKGKKFLQYNRLQLSRIYPKGQRLDSSNYDPLPMWICGSQLVALNFQTPDKPMQMNQALFLAGGHCGYVLQPSVMRDEAFDPFDKSSLRGLEPCAICIEVLGARHLPKNGRGIVCPFVEIEVAGAEYDSIKQKTEFVVDNGLNPVWPAKPFHFQISNPEFAFLRFVVYEEDMFSDQNFLAQATFPVKGLKTGYRAVPLKNNYSEGLELASLLVKIDVFPAKQENGDLSPFGGASLRERSCDASGPLFHGRAREGSFEARYQQPFEDFRISQEHLADHFDGRDRRTPRRTRVNGDNRL
partner: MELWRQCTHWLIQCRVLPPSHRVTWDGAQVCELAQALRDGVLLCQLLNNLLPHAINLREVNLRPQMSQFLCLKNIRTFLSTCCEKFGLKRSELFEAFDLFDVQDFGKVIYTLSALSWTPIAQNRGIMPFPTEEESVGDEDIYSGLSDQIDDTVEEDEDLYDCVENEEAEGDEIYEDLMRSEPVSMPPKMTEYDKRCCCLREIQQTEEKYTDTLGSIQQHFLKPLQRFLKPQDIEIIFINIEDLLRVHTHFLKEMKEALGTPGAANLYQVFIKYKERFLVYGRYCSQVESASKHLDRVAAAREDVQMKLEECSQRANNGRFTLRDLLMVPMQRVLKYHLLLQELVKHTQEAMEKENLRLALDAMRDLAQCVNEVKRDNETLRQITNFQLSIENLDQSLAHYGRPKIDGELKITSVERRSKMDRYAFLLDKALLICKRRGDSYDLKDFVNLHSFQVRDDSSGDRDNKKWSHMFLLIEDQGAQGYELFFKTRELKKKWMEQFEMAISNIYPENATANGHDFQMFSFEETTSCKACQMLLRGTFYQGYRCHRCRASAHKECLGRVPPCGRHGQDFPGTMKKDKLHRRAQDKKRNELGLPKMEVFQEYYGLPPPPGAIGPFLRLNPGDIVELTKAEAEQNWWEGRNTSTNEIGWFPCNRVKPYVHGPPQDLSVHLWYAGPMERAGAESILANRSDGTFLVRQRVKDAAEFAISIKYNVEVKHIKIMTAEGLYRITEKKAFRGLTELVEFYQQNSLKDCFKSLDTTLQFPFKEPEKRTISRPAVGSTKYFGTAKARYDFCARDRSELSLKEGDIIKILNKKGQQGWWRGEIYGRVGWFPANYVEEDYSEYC
B2: 1-phosphatidylinositol 4,5-bisphosphate phosphodiesterase gamma-1 (Bos taurus (Bovine)), P08487 (parent)
chain: B1 chain
B3: 1-phosphatidylinositol 4,5-bisphosphate phosphodiesterase gamma-1 (Bos taurus (Bovine)), P08487 (parent)
chain: B1 chain
partner: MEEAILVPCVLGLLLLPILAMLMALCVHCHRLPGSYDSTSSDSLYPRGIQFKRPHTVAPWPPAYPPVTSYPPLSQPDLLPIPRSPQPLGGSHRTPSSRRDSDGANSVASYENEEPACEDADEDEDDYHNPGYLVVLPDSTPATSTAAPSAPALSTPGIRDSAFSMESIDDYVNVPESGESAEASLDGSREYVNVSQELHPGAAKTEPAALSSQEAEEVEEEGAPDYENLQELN
B4: 1-phosphatidylinositol 4,5-bisphosphate phosphodiesterase gamma-1 (Bos taurus (Bovine)), P08487 (parent)
chain: B1 chain
partner: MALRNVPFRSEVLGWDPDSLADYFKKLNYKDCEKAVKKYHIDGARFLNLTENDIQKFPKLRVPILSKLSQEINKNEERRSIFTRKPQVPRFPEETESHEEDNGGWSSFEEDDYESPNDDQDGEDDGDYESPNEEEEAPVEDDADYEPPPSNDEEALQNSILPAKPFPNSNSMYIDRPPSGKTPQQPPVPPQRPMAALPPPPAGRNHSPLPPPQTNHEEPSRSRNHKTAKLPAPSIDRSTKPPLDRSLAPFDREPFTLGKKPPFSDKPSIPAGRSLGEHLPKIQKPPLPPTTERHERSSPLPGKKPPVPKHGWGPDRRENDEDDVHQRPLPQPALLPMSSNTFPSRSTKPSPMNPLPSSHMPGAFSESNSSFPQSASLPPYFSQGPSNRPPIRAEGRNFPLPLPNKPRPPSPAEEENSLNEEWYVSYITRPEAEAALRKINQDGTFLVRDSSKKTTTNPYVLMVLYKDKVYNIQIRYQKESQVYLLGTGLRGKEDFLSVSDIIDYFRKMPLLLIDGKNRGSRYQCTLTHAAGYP

Variants of: B1
Conditions: with vav_human VAV1, P15498

| effect of a mutation on the interaction | Variant |
| --- | --- |
| disrupting interaction | R696K |
| disrupting interaction | R694K |

Variants of: B1
Conditions: with vav_human VAV1, P15498
Remark: another data set of the same source

| effect of a mutation on the interaction | Variant |
| --- | --- |
| disrupting interaction | P842K |

Variants of: B1
Conditions: with vav_human VAV1, P15498
Remark: another data set of the same source

| effect of a mutation on the interaction | Variant |
| --- | --- |
| disrupting interaction | R586K |

Variants of: B2
Conditions: with cbl_human CBL

| effect of a mutation on the interaction | Variant |
| --- | --- |
| disrupting interaction | P842K |

Variants of: B3
Conditions: with LAT

| effect of a mutation on the interaction | Variant |
| --- | --- |
| disrupting interaction | P842K |
| disrupting interaction | R696K |
| disrupting interaction | R694K |

Variants of: B3
Conditions: with LAT
Remark: another data set of the same source

| effect of a mutation on the interaction | Variant |
| --- | --- |
| disrupting interaction | R586K |

Variants of: B4
Conditions: with lcp2_human LCP2, Q13094

| effect of a mutation on the interaction | Variant |
| --- | --- |
| disrupting interaction | P842K |

Variants of: B4
Conditions: with lcp2_human LCP2, Q13094
Remark: another data set of the same source

| effect of a mutation on the interaction | Variant |
| --- | --- |
| disrupting interaction | R694K |
| disrupting interaction | R696K |

Variants of: B4
Conditions: with lcp2_human LCP2, Q13094
Remark: another data set of the same source

| effect of a mutation on the interaction | Variant |
| --- | --- |
| disrupting interaction | R586K |

From IntAct's records for PubMed 16467851
